Article PMC9333443, “Structural insights into Pot1-ssDNA, Pot1-Tpz1 and Tpz1-Ccq1 Interactions within fission yeast shelterin complex” (PLoS Genetics, 2022)

B1: Tpz1, two-hybrid fusion, wild type (construct limits not stated) [S. pombe] / Ccq1, two-hybrid fusion, wild type (construct limits not stated) [S. pombe] (parent complex)
chain 1: MSNCLKHPWLENGLLNLIKNADVLPIRVFKCQPLQIFEYIRYEHPIRCKLSDTEFYIEAEFSSQSISDLNNFTEKRITSLRGGIVTLGNFLIHLIPSQSGIIPWIQVESFNFQGCEGAVFGNPKAITTSALFNALLQSPYLAALANEFNRSIKEGSSYQEASLSQQEKPNDNTSNSRDIKNNIQFHWKNMTSLSIEECIIPKGQQLILEKESEENTTHGIYLEERKMAQGLHNSVSETPEVKQEDNDEDLDAYSWSSSTDSAGEIPSLPTNRKILEKIAEKPPPFESPLEDDETPDQTNEHEANQVNVSQLPLNPRGSGISGRPVESTEQLNSSLTIERSQSIQSTDSKQRVETQSHRRSKIEIFDAQDELFDRSICTTIDDSTGKLLNAEETPIKTGDLHSTSASSVISCTPPAINFTSDICNEQIELEYKRKPIPDYDFMKGLETTLQELYVEHQSKKRRLELFQLTNNHQKNSEACEMCRLGLPHGSFFELLRDWKKIEEFRNKS
chain 2: MSEINDFTNSIIINESDTKYEVYSEVNSSNRWIAKEDCPSPLEDVWLLKLAGHKRKLEEPLSCMRNEEPASKQREIEKFLRTDLDHSENDFLTQEVDEFPSTQQLFPIPLQNDTAFDSSEESITKSSKSSFSVLDIGLPMSALQRKMMHRLVQYFAFCIDHFCTGPSDSRIQEKIRLFIQSAHNIAKHPSLYDTEVRNPSAAESTNSHVSLDASNFSSYAENSSKFLFLQELFKNLSPSYSKTFFLFISNQFLANTLTQWLKSQNIDAELWAEEDAKTSQHPAIWICVSKKAPSASHFLQSCPDLSATIFYDIEAYMSVTSSLPSIQSLVLRLIHLGSIEHAIKCFQSSYNASFLVNIVGVVATLSSSSEENSEASNLSTLFEKSGNFEEILGSESHSSITEKTRDIAKNVATWLKNGENFSSWPLPPLMDLASLSVAEPRDSQPSVSQVNDTFVKSSDSTFPSSQSMQSPSKLHSLTSNATDLLSSSSLKKNFFSQQEADEVELSNNYDLQGAAVQYLQRRLRMVEDELHEAINSKNVQQSRSEELEQQISKLTDNLQEYRNTVRELKLDLEKSKKKNEDLSKLEVEKVEEIANLKKELTHLAKQQEFGFKYVQEFSNEDLQGKLIEANEKNYKLTQLLKTQKEDADFITNQYQNASTFAAEQSKEVAKLQAECKRLQAINSKVMEEVKVYNDSRVEALLAKVSSLEETLKILEQKSLPKFTPHNQSPRIIDSN

Variants of: B1
Assay: yeast two-hybrid (β-galactosidase); parent: 100; read off a plot

**Q.** Which percent of parent does the source give for chain 2 P189R here?
**A.** ~13 % WT

**Q.** chain 2 M147R was tested. Which percent of parent did it give?
**A.** ~13 % WT

**Q.** For chain 2 I185R, which percent of parent is on record?
**A.** ~13 % WT

**Q.** chain 2 L151R was tested. Which percent of parent did it give?
**A.** ~13 % WT

**Q.** For chain 2 L177R, which percent of parent is on record?
**A.** ~85 % WT

**Q.** How did the percent of parent turn out when chain 2 E221R was run?
**A.** ~31 % WT

**Q.** For chain 2 F155R, which percent of parent is on record?
**A.** ~13 % WT

**Q.** How did the percent of parent turn out when chain 2 L143R was run?
**A.** ~16 % WT

Variants of: B1
Assay: as above
Remark: another data set of the same source

**Q.** Which percent of parent does the source give for chain 1 P435A here?
**A.** ~65 % WT

**Q.** With chain 1 Y453R as the variant, how does the percent of parent read?
**A.** ~16 % WT

**Q.** How did the percent of parent turn out when chain 1 L449R was run?
**A.** ~15 % WT

**Q.** How did the percent of parent turn out when chain 1 Y439A was run?
**A.** ~15 % WT

**Q.** With chain 1 F441A as the variant, how does the percent of parent read?
**A.** ~14 % WT

**Q.** For chain 1 R433A, which percent of parent is on record?
**A.** ~90 % WT

**Q.** chain 1 L445R was tested. Which percent of parent did it give?
**A.** ~14 % WT

**Q.** With chain 1 D438A as the variant, how does the percent of parent read?
**A.** ~100 % WT

**Q.** With chain 1 K432A as the variant, how does the percent of parent read?
**A.** ~72 % WT

**Q.** How did the percent of parent turn out when chain 1 H456A was run?
**A.** ~100 % WT
